The target in the assay is T1, Cynomolgus CD3 epsilon protein (cynomolgus monkey, UniProt Q95LI5 22-117).
T1 construct: extracellular domain; The method names a bought protein (Acro # CDE-05226), the result names W331-cynoProl.ECD.His; also called W331-cynoProl.ECD.His; Acro # CDE-05226; not shown: His tag by the construct's name
T1 sequence (looked up): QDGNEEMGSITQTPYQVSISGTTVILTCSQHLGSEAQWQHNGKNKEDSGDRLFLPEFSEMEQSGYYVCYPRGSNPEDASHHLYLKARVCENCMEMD
In words: ELISA on coated cynomolgus CD3 epsilon protein. Here is the method: The binding of the CD3×CD19 bispecific antibody to cynomolgus CD3 were tested by protein binding ELISA. 96-well high protein binding ELISA plates (Nunc MaxiSorp, ThermoFisher, Thermo-442404) were coated overnight at 4° C. with 100 ul of 1 μg/ml Cynomolgus CD3 epsilon protein (Acro, # CDE-05226) in Carbonate-bicarbonate buffer (20 mM Na2CO3, 180 mM NaHCO₃, PH9.2). All wells were washed one time with 300 μL per well of PBS/0.5% Tween-20 (v/v). The wells were then blocked for one hour at room temperature with 200 μL per well of PBS/2% BSA (BOVOGEN, # BSAS) and washed three times with 300 μL per well of PBS/0.5% Tween-20 (v/v). For the primary antibody binding, CD3×CD19 bispecific antibody serially diluted in PBS/2% BSA were added to the relevant wells and incubated at room temperature for two hours. Plates were washed three times like before prior to the addition of 100 ul of 100 ng/ml secondary antibody Goat-anti-human IgG Fc-HRP (Bethyl, # A80-304P). Plates were incubated at room temperature for one hour, followed by six washes as described above. […] The extent of bispecific antibody binding to cynomolgus CD3 was determined by measuring the OD450 absorbance using the SpectraMax® M5e microplate reader. […]

B1: W3438-T3U4.E17-1.uIgG4.SP (bispecific antibody)
light 1: DIVMTQSPDSLAVSLGERATINCKSSQSLLNSRTRKNYLAWYQQKPGQPPKLLIYWASTRQSGVPDRFSGSGSGTDFTLTISSLQAEDVAVYYCTQSHTLRTFGGGTKVEIKPDIQNPDPAVYQLRDSKSSDKSVCLFTDFDSQTQVSQSKDSDVYITDKCVLDMRSMDFKSNSAVAWSQKSDFACANAFQNSIIPEDTFFPSPESS
heavy 1: QVQLVQSGAEVKKPGSSVKVSCKASGFAFTDYYIHWVRQAPGQGLEWMGWISPGNVNTKYNENFKGRVTITADKSTSTAYMELSSLRSEDTAVYYCARDGYSLYYFDYWGQGTLVTVLEDLKNVFPPEVAVFEPSEAEISHTQKATLVCLATGFYPDHVELSWWVNGKEVHSGVCTDPQPLKEQPALQDSRYALSSRLRVSATFWQNPRNHFRCQVQFYGLSENDEWTQDRAKPVTQIVSAEAWGRYGPPCPPCPAPEFLGGPSVFLFPPKPKDTLMISRTPEVTCVVVDVSQEDPEVQFNWYVDGVEVHNAKTKPREEQFNSTYRVVSVLTVLHQDWLNGKEYKCKVSNKGLPSSIEKTISKAKGQPREPQVYTLPPCQEEMTKNQVSLWCLVKGFYPSDIAVEWESNGQPENNYKTTPPVLDSDGSFFLYSRLTVDKSRWQEGNVFSCSVMHEALHNHYTQKSLSLSLGK
light 2: DIQLTQSPSFLSASVGDRVTITCSASSTVNYMHWYQQKPGKAPKLLIYSTSNLASGVPSRFSGSGSGTEFTLTISSLQPEDFATYYCHQWSSYPYTFGQGTKLEIKRTVAAPSVFIFPPSDEQLKSGTASVVCLLNNFYPREAKVQWKVDNALQSGNSQESVTEQDSKDSTYSLSSTLTLSKADYEKHKVYACEVTHQGLSSPVTKSFNRGEC
heavy 2: QMQLVQSGPEVKKPGTSVKVSCKASGYAFTSYNMYWVRQARGQRLEWIGYIDPYNGDTTYNQKFKGRVTITRDMSTSTAYMELSSLRSEDTAVYYCLTTAYAMDYWGQGTLVTVSSASTKGPSVFPLAPCSRSTSESTAALGCLVKDYFPEPVTVSWNSGALTSGVHTFPAVLQSSGLYSLSSVVTVPSSSLGTKTYTCNVDHKPSNTKVDKRVESKYGPPCPPCPAPEFLGGPSVFLFPPKPKDTLMISRTPEVTCVVVDVSQEDPEVQFNWYVDGVEVHNAKTKPREEQFNSTYRVVSVLTVLHQDWLNGKEYKCKVSNKGLPSSIEKTISKAKGQPREPQVCTLPPSQEEMTKNQVSLSCAVKGFYPSDIAVEWESNGQPENNYKTTPPVLDSDGSFFLVSRLTVDKSRWQEGNVFSCSVMHEALHNHYTQKSLSLSLGK
notes: Bispecific, bivalent: one anti-CD3 arm with TCR constant domains and one native anti-CD19 Fab arm, IgG4 S228P Fc with knobs-into-holes; also called WBP3438; CD3×CD19 bispecific antibody; copies: 1 + 1 + 1 + 1
B1 gave an EC50 of 0.04 nM.

For orientation: EC50 means the concentration needed to bring the measured effect to its halfway point. Low readings indicate greater potency, high ones weaker potency.

(Values after patent US20200283523A1 (WUXI BIOLOGICS IRELAND, published 2020).)
